According to paper PMC4755738, “Actin filaments target the oligomeric maturation of the dynamin GTPase Drp1 to mitochondrial fission sites” (eLife, 2015):

What was measured:
[1] = target: T1, Rabbit skeletal muscle actin (filaments) (rabbit, UniProt P68135 1-377); test: co-sedimentation; high-speed co-sedimentation; Drp1 1.3 uM with pre-polymerized actin filaments 0.25-10 uM, 1 hr at 23 C, 200 ul, ionic strength 75 mM (NaCl); 80,000 rpm 20 min 4 C (TLA-100.1); pellets on SDS-PAGE, Colloidal blue, ImageJ; apparent Kd; details: both partners purified
[2] = target: T1, Rabbit skeletal muscle actin (filaments); test: cell-based or functional assay

B1: Human Drp1 isoform 000 (E. coli-purified) (enzyme)
chain: MEALIPVINKLQDVFNTVGADIIQLPQIVVVGTQSSGKSSVLESLVGRDLLPRGTGIVTRRPLILQLVHVSQEDKRKTTGEENGVEAEEWGKFLHTKNKLYTDFDEIRQEIENETERISGNNKGVSPEPIHLKIFSPNVVNLTLVDLPGMTKVPVGDQPKDIELQIRELILRFISNPNSIILAVTAANTDMATSEALKISREVDPDGRRTLAVITKLDLMDAGTDAMDVLMGRVIPVKLGIIGVVNRSQLDINNKKSVTDSIRDEYAFLQKKYPSLANRNGTKYLARTLNRLLMHHIRDCLPELKTRINVLAAQYQSLLNSYGEPVDDKSATLLQLITKFATEYCNTIEGTAKYIETSELCGGARICYIFHETFGRTLESVDPLGGLNTIDILTAIRNATGPRPALFVPEVSFELLVKRQIKRLEEPSLRCVELVHEEMQRIIQHCSNYSTQELLRFPKLHDAIVEVVTCLLRKRLPVTNEMVHNLVAIELAYINTKHPDFADACGLMNNNIEEQRRNRLARELPSAVSRDKVASGGGGVGDGVQEPTTGNWRGMLKTSKAEELLAEEKSKPIPIMPASPQKGHAVNLLDVPVPVARKLSAREQRDCEVIERLIKSYFLIVRKNIQDSVPKAVMHFLVNHVKDTLQSELVGQLYKSSLLDDLLTESEDMAQRRKEAADMLKALQGASQIIAEIRETHLW
notes: Drp1 (dynamin-related protein 1), human, isoform 000 of Strack et al. 2013; Cloned in pET16b with an N-terminal Strep-tag followed by an HRV3C protease site; eluted from the resin by HRV3C cleavage; Used in high-speed co-sedimentation and GTPase assays; also called dynamin GTPase Drp1; not shown: Strep-tag, N-terminal, cleaved
B1 was tested, and the Kd [1] was 800 ± 400 nM and the “Drp1 GTPase activity (malachite green phosphate release) with 0.5 or 1 uM pre-polymerized actin filaments, against Drp1 alone” value [2] was about 3.5 fold.
